Results: patent US20190352387A1 (Chugai, published 2019)

What was measured:
[1] = biological target: T1, Recombinant mouse sclerostin (mouse, UniProt Q99P68 24-211); assay: SPR (Biacore T200), 37 C, dissociation at pH 5.8 of complex formed at pH 7.4
T1 construct: Whole entry as named; also called mouse-SOST
T1 sequence: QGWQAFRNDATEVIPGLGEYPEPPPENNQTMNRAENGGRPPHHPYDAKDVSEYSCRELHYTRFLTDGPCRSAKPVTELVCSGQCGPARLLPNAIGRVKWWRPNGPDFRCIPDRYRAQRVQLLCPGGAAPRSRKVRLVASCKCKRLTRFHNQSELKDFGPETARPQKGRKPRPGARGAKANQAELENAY
Description: (§1) The affinity of anti-sclerostin variants binding to human, cynomolgus monkey (cyno), rat, or mouse sclerostin at pH 7.4 and pH 5.8 were determined at 37 degrees C. using Biacore T200 instrument (GE Healthcare). Anti-human Fc (GE Healthcare) was immobilized onto all flow cells of a CM4 sensor chip using amine coupling kit (GE Healthcare). All antibodies and analytes were prepared in ACES pH7.4 or pH 5.8 buffer containing 20 mM ACES, 150 mM NaCl, 1.2 mM CaCl₂, 0.05% Tween 20, 0.005% NaN₃. Each antibody was captured onto the sensor surface by anti-human Fc. […] Sensor surface was regenerated each cycle with 3M MgCl₂.
(§2) The pH dependent interaction assessment was determined by a modified Biacore assay. Briefly, an additional dissociation phase at pH5.8 was integrated into the Biacore assay immediately after dissociation phase at pH7.4. This is to assess the pH-dependent dissociation between antibody and antigen from the complexes formed at pH7.4. The dissociation rate at pH5.8 buffer was determined by processing and fitting data using Scrubber 2.0 (BioLogic Software) curve fitting software.

[2] = biological target: T1, Recombinant mouse sclerostin; assay: SPR (Biacore T200), 37 C, antibody captured by anti-human Fc, sclerostin as analyte, pH 5.8
Description: as §1

[3] = biological target: T2, Recombinant cynomolgus monkey sclerostin (cynomolgus monkey, UniProt Q9BG78 24-213 (Chlorocebus aethiops entry)); assay: SPR (Biacore T200), 37 C, dissociation at pH 5.8 of complex formed at pH 7.4
T2 construct: Whole entry as named; expressed and purified as the human counterpart; also called cyno-SOST; cyno SOST
T2 chain: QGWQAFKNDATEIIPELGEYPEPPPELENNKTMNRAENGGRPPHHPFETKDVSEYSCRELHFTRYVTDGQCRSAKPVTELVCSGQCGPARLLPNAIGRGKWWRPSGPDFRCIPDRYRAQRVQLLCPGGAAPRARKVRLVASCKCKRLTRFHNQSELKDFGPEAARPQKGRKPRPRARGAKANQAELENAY
Description: as §1, §2

[4] = biological target: T3, Recombinant human sclerostin (human, UniProt Q9BQB4 24-213); assay: as above
T3 construct: Whole entry as named; Secreted recombinant protein purified from FreeStyle293-F conditioned medium; also called human-SOST; Human SOST
T3 sequence: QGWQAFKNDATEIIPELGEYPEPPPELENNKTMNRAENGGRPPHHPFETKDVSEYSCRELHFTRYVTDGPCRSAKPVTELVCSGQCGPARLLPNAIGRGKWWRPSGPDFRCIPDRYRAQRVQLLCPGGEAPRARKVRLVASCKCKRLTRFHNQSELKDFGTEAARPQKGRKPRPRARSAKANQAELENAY
Description: as §1, §2

[5] = biological target: T1, Recombinant mouse sclerostin; assay: SPR (Biacore T200), 37 C, antibody captured by anti-human Fc, sclerostin as analyte, pH 7.4; pH 7.4
Description: as §1

[6] = biological target: T2, Recombinant cynomolgus monkey sclerostin; assay: SPR (Biacore T200), 37 C, antibody captured by anti-human Fc, sclerostin as analyte, pH 5.8
Description: as §1

[7] = biological target: T3, Recombinant human sclerostin; assay: SPR (Biacore T200), 37 C, antibody captured by anti-human Fc, sclerostin as analyte, pH 7.4
Description: as §1

[8] = biological target: T1, Recombinant mouse sclerostin; assay: SPR (Biacore T200), 37 C, antibody captured by anti-human Fc, sclerostin as analyte, pH 5.8; pH 5.8
Description: as §1

[9] = biological target: T3, Recombinant human sclerostin; assay: SPR (Biacore), dissociation at pH 7.4
Description: as §1

[10] = biological target: T4, Recombinant rat sclerostin (rat, UniProt Q99P67 29-213); assay: SPR (Biacore T200), 37 C, dissociation at pH 5.8 of complex formed at pH 7.4
T4 construct: Whole entry as named; also called rat-SOST
T4 sequence: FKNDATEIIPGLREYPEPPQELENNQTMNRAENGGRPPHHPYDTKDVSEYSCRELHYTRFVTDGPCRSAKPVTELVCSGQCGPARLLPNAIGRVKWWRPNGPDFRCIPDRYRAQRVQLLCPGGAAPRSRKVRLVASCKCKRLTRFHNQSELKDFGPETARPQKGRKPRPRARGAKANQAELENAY
Description: as §1, §2

[11] = biological target: T4, Recombinant rat sclerostin; assay: SPR (Biacore T200), 37 C, antibody captured by anti-human Fc, sclerostin as analyte, pH 5.8
Description: as §1

[12] = biological target: T2, Recombinant cynomolgus monkey sclerostin; assay: SPR (Biacore), dissociation at pH 7.4
Description: as §1

[13] = biological target: T3, Recombinant human sclerostin; assay: SPR (Biacore T200), 37 C, antibody captured by anti-human Fc, sclerostin as analyte, pH 5.8
Description: as §1

[14] = biological target: T2, Recombinant cynomolgus monkey sclerostin; assay: SPR (Biacore T200), 37 C, antibody captured by anti-human Fc, sclerostin as analyte, pH 7.4
Description: as §1

B1: mabB (antibody, V domains shown)
VH: QVQLVQSGAEVKKPGASVKVSCKVSGFPIKDTFQHWVRQAPGKGLEWMGWSDPEIGDTEYASKFQGRVTMTEDTSTDTAYMELSSLRSEDTAVYYCATGDTTYKFDFWGQGTTVTVSS
VL: DIQMTQSPSSLSASVGDRVTITCKASQDVHTAVAWYQQKPGKAPKLLIYWASTRWTGVPSRFSGSGSGTDFTLTISSLQPEDFATYYCQQYSDYPWTFGGGTKVEIK
A koff [1] of 0.00265 s⁻¹ and a Kd [2] of 0.26 nM were found for B1 in this work.

B2: mabA (antibody, V domains shown)
VH: EVQLVQSGAEVKKPGASVKVSCKASGYTFTDYNMHWVRQAPGQGLEWMGEINPNSGGAGYNQKFKGRVTMTTDTSTSTAYMELRSLRSDDTAVYYCARLGYDDIYDDWYFDVWGQGTTVTVSS
VL: DIQMTQSPSSLSASVGDRVTITCRASQDISNYLNWYQQKPGKAPKLLIYYTSRLLSGVPSRFSGSGSGTDFTLTISSLQPEDFATYYCQQGDTLPYTFGGGTKVEIK
A koff [3] of 0.00697 s⁻¹, a koff [4] of 0.00631 s⁻¹ and a Kd [5] of less than 0.01 nM were found for B2 in this work. The Kd [6] was 1.4 nM, the Kd [7] was 0.08 nM and the Kd [8] was less than 0.01 nM.

B3: bsH638/abL152 (antibody, V domains shown)
VH: QVQLVQSGAEVKKPGASVKVSCKVSGYTLTHTFMHWVRQAPGKGLEWMGWSDPEIGDHEYASKFQGRVTMTEDTSTDTAYMELSSLRSEDTAVYYCATGDTTYKFDYWGQGTLVTVSS
VL: DIQMTQSPSSLSASVGDRVTITCRASEGIHDALAWYQQKPGKAPKLLIYWASTLESGVPSRFSGSGSGTDFTLTISSLQPEDFATYYCQQGDTLPYTFGGGTKVEIK
notes: Homodimeric antibody
A koff [9] of 0.0093 s⁻¹ was found for B3 in this work.

B4: mabA_pH1 (antibody, V domains shown)
VH: EVQLVQSGAEVKKPGASVKVSCKASGYTFTDYNMHWVRQAPGQGLEWMGEINPNSGHAGYNQKFKGRVTMTTDTSTSTAYMELRSLRSDDTAVYYCARLHYDDIYDDWYFDVWGQGTTVTVSS
VL: DIQMTQSPSSLSASVGDRVTITCRASHDISNYLNWYQQKPGKAPKLLIYYTSRLLSGVPSRFSGSGSGTDFTLTISSLQPEDFATYYCQQGDTLPYTFGGGTKVEIK
A koff [10] of 0.0059 s⁻¹, a koff [1] of 0.0107 s⁻¹ and a Kd [11] of 4.2 nM were found for B4 in this work.

B5: amH852/abL152 (antibody, V domains shown)
VH: EVQLVQSGAEVKKPGASVKVSCKASGYTFTDYNMHWVRQAPGKGLEWMGEIMPHSGRYGLKQKFKGRVTMTTDTSTSTAYMELRSLRSDDTAVYYCARLEYSEIYDDWYFDVWGQGTTVTVSS
VL: DIQMTQSPSSLSASVGDRVTITCRASEGIHDALAWYQQKPGKAPKLLIYWASTLESGVPSRFSGSGSGTDFTLTISSLQPEDFATYYCQQGDTLPYTFGGGTKVEIK
notes: Homodimeric antibody
A koff [12] of 0.0019 s⁻¹ was found for B5 in this work.

B6: mabA_NpH2 (antibody, V domains shown)
VH: EVQLVQSGAEVKKPGASVKVSCKASGYTFTDYNMHWVRQAPGQGLEWMGEINPNSGGAGYNQKFKGRVTMTTDTSTSTAYMELRSLRSDDTAVYYCARLGYDDIYDDWYFDVWGQGTTVTVSS
VL: DIQMTQSPSSLSASVGDRVTITCRASQDISNYLNWYQQKPGKAPKLLIYHTSRLLSGVPSRFSGSGSGTDFTLTISSLQPEDFATYYCQQGDTLPYTFGGGTKVEIK
A koff [3] of 0.0018 s⁻¹, a koff [4] of 0.0023 s⁻¹ and a Kd [13] of 0.69 nM were found for B6 in this work. It also gave a Kd [14] of 0.28 nM.
